Test results from the Human Domainome abundance scans (Beltran et al. 2025).
± gives the uncertainty stated by the source.

B1: Apoptosis-associated speck-like protein containing a CARD, residues 114 to 194; numbered along this chain, Q9ULZ3 (parent)
chain: FIDQHRAALIARVTNVEWLLDALYGKVLTDEQYQAVRAEPTNPSKMRKLFSFTPAWNWTCKDLLLQALRESQSYLVEDLER

Variants of: B1
Experiment: abundance fitness (aPCA) (normalised: wild type 0, dead -1); higher = more abundant; growth selection in yeast, the domain comes from the species named
Details: Homo sapiens

Variant	abundance fitness
E39Y	-0.49 ± 0.18
E39R	-0.692 ± 0.075
E39L	-0.303 ± 0.06
E39T	-0.789 ± 0.17
E39G	-0.669 ± 0.088
E39N	-0.26 ± 0.24
E39A	-0.474 ± 0.094
E39W	-0.946 ± 0.19
E39H	-0.79 ± 0.38
E39K	-0.549 ± 0.11
E39S	-0.842 ± 0.11
E39I	-0.909 ± 0.25
E39Q	-0.293 ± 0.11
E39C	-0.088 ± 0.074
E39F	-0.714 ± 0.13
E39P	-0.914 ± 0.2
E39V	-0.815 ± 0.097
E39M	-0.129 ± 0.1
S44A	0.116 ± 0.044
S44F	-0.842 ± 0.2
S44C	-0.268 ± 0.089
S44D	0.091 ± 0.085
S44G	-0.063 ± 0.042
D30H	0.094 ± 0.14

Variant	abundance fitness
D30K	-0.416 ± 0.12
D30A	-0.165 ± 0.06
D30V	-0.339 ± 0.055
D30S	-0.249 ± 0.058
D30R	-0.254 ± 0.053
D30I	-0.309 ± 0.14
D30Y	-0.293 ± 0.11
D30C	-0.539 ± 0.13
D30P	-0.213 ± 0.075
D30E	-0.013 ± 0.077
D30W	-0.26 ± 0.074
D30L	-0.097 ± 0.047
D30N	-0.325 ± 0.084
D30G	-0.545 ± 0.052
D30T	-0.193 ± 0.13
D30Q	-0.199 ± 0.11
T41F	-1.2 ± 0.31
T41S	-0.199 ± 0.057
T41Y	-0.519 ± 0.24
T41K	-0.755 ± 0.18
T41L	-0.834 ± 0.11
T41N	0.045 ± 0.1
T41M	-0.701 ± 0.13
T41P	-0.845 ± 0.15

Variant	abundance fitness
T41V	-0.707 ± 0.087
T41W	-0.653 ± 0.098
T41Q	-0.517 ± 0.14
T41G	-0.484 ± 0.048
T41A	-0.52 ± 0.081
T41R	-0.907 ± 0.1
T41C	-0.28 ± 0.077
T41E	-0.782 ± 0.17
L23W	-0.939 ± 0.21
L23Y	-0.586 ± 0.31
L28E	-0.817 ± 0.12
L28R	-0.871 ± 0.084
L28S	-0.812 ± 0.091
L28D	-0.935 ± 0.21
L28M	-0.767 ± 0.15
L28Q	-0.931 ± 0.23
L28N	-0.805 ± 0.31
L28V	-0.734 ± 0.078
L28K	-0.807 ± 0.24
L28A	-0.732 ± 0.088
L28W	-0.798 ± 0.06
L28P	-0.878 ± 0.14
L28F	-0.896 ± 0.23
L28I	-0.119 ± 0.068

Variant	abundance fitness
L28Y	-0.783 ± 0.25
P40F	-0.912 ± 0.28
P40W	-0.832 ± 0.12
P40S	-0.291 ± 0.063
P40I	-0.339 ± 0.14
P40L	-0.587 ± 0.074
P40C	-0.434 ± 0.096
P40T	-0.202 ± 0.07
P40N	-0.419 ± 0.18
P40Y	-0.633 ± 0.19
P40R	-0.167 ± 0.041
P40D	-0.38 ± 0.16
P40G	-0.425 ± 0.042
P40E	-0.257 ± 0.086
P40K	-0.123 ± 0.086
P40A	-0.256 ± 0.068
P40M	-0.896 ± 0.24
E31F	-0.82 ± 0.19
E31T	-0.465 ± 0.096
E31L	-0.461 ± 0.072
E31A	-0.252 ± 0.054
E31C	-0.832 ± 0.21
E31G	-0.469 ± 0.048
E31P	-0.735 ± 0.12

Variant	abundance fitness
E31K	-0.65 ± 0.21
E31H	-0.823 ± 0.22
E31Y	-0.477 ± 0.081
E31R	-0.238 ± 0.051
E31D	-0.161 ± 0.12
E31S	-0.263 ± 0.053
E31W	-0.463 ± 0.1
E31Q	-0.38 ± 0.12
E31M	-0.693 ± 0.13
E31N	-0.327 ± 0.22
E31I	-0.581 ± 0.12
K26L	-0.438 ± 0.052
K26R	-0.178 ± 0.038
K26Y	-0.658 ± 0.3
K26I	-0.094 ± 0.11
K26H	-0.422 ± 0.13
K26P	-0.369 ± 0.065
K26D	-0.483 ± 0.11
K26Q	-0.249 ± 0.07
K26T	0.014 ± 0.073
K26S	-0.081 ± 0.051
K26F	-0.47 ± 0.3
K26A	-0.371 ± 0.078
K26M	-0.563 ± 0.11

Variant	abundance fitness
K26C	-0.262 ± 0.094
K26E	-0.323 ± 0.085
K26N	-0.314 ± 0.16
K26W	-0.481 ± 0.044
K26V	-0.106 ± 0.051
K26G	-0.513 ± 0.062
G25H	-0.213 ± 0.12
G25K	0.025 ± 0.14
G25Y	-0.55 ± 0.3
G25D	-0.255 ± 0.11
G25F	-0.931 ± 0.22
G25T	-0.81 ± 0.16
G25R	-0.445 ± 0.049
G25W	-0.325 ± 0.077
G25Q	-0.41 ± 0.1
G25P	0.191 ± 0.053
G25V	-0.779 ± 0.097
G25C	-0.582 ± 0.12
G25I	-0.543 ± 0.22
G25A	-0.43 ± 0.061
G25S	-0.701 ± 0.084
G25L	-0.45 ± 0.058
R37M	0.136 ± 0.073
R37C	-0.208 ± 0.088

Variant	abundance fitness
R37L	0.067 ± 0.042
R37H	-0.252 ± 0.1
R37S	-0.104 ± 0.06
R37D	-0.219 ± 0.074
R37W	-0.373 ± 0.059
R37Y	-0.118 ± 0.12
R37F	-0.509 ± 0.15
R37I	0.063 ± 0.11
R37V	-0.148 ± 0.042
R37A	0.039 ± 0.043
R37Q	-0.008 ± 0.083
R37G	-0.479 ± 0.052
R37N	-0.1 ± 0.21
R37E	-0.304 ± 0.063
R37T	-0.182 ± 0.075
R37P	-0.792 ± 0.13
R37K	-0.111 ± 0.1
Y24W	-0.301 ± 0.071
Y24R	0.109 ± 0.046
Y24F	-0.594 ± 0.11
Y24I	-0.395 ± 0.12
Y24S	-0.319 ± 0.056
Y24D	-0.157 ± 0.14
Y24H	0.067 ± 0.077

Variant	abundance fitness
Y24V	-0.054 ± 0.047
Y24N	-0.078 ± 0.12
Y24T	-0.654 ± 0.088
Y24A	-0.254 ± 0.056
Y24L	-0.035 ± 0.047
Y24M	-0.501 ± 0.065
Y24Q	-0.217 ± 0.1
Y24K	0.255 ± 0.061
Y24P	-0.598 ± 0.062
Y24G	-0.483 ± 0.062
A35Q	-0.011 ± 0.076
A35K	-0.224 ± 0.14
A35N	-0.851 ± 0.29
A35S	-0.08 ± 0.052
A35I	-0.862 ± 0.44
A35T	-0.348 ± 0.074
A35P	-0.664 ± 0.12
A35R	-0.491 ± 0.059
A35L	-0.218 ± 0.054
A35E	-0.064 ± 0.061
A35G	-0.472 ± 0.061
A35W	-0.957 ± 0.17
A35F	-0.84 ± 0.17
A35V	-0.365 ± 0.051

Variant	abundance fitness
P43K	-0.114 ± 0.086
P43L	-0.263 ± 0.046
P43Q	0.065 ± 0.097
P43T	0.04 ± 0.068
P43R	-0.091 ± 0.039
P43N	-0.241 ± 0.11
P43F	-0.395 ± 0.15
P43G	-0.27 ± 0.052
P43M	-0.138 ± 0.07
P43Y	-0.593 ± 0.13
P43E	0.07 ± 0.072
P43W	-0.313 ± 0.068
P43S	-0.061 ± 0.046
P43A	-0.045 ± 0.054
P43I	-0.566 ± 0.19
P43H	-0.221 ± 0.13
P43C	-0.147 ± 0.08
P43V	-0.096 ± 0.053
V36M	-0.837 ± 0.27
V36I	-0.143 ± 0.13
V36N	-0.823 ± 0.46
V36P	-0.89 ± 0.19
V36K	-0.325 ± 0.12
V36C	0.04 ± 0.069

Variant	abundance fitness
V36E	-0.801 ± 0.12
V36F	-0.548 ± 0.12
V36R	-0.833 ± 0.1
V36A	-0.46 ± 0.08
V36G	-0.691 ± 0.08
V36Y	-0.973 ± 0.25
V36L	-0.846 ± 0.11
V36W	-0.74 ± 0.095
V36T	-1.01 ± 0.24
V36S	-0.334 ± 0.064
V36D	-0.79 ± 0.21
V36H	-0.819 ± 0.28
Y33P	-0.654 ± 0.13
Y33L	-0.204 ± 0.057
Y33C	0.121 ± 0.06
Y33T	-0.188 ± 0.086
Y33S	-0.376 ± 0.053
Y33K	-0.342 ± 0.15
Y33W	-0.524 ± 0.11
Y33A	-0.1 ± 0.06
Y33I	-0.097 ± 0.14
Y33G	-0.69 ± 0.062
Y33F	-0.277 ± 0.11
Y33E	-0.59 ± 0.12

Variant	abundance fitness
Y33M	-0.189 ± 0.11
Y33Q	-0.546 ± 0.13
Y33V	0.136 ± 0.047
N42F	-0.372 ± 0.14
N42A	-0.188 ± 0.076
N42W	-0.582 ± 0.076
N42P	-0.306 ± 0.077
N42I	0.082 ± 0.31
N42K	-0.74 ± 0.24
N42M	-0.48 ± 0.096
N42Y	-0.896 ± 0.36
N42H	-0.624 ± 0.14
N42G	-0.331 ± 0.05
N42C	-0.616 ± 0.1
N42T	-0.336 ± 0.11
N42Q	-0.488 ± 0.11
N42S	-0.445 ± 0.061
N42D	-0.221 ± 0.099
N42L	-0.337 ± 0.061
N42V	-0.596 ± 0.082
N42E	-0.337 ± 0.085
N42R	-0.562 ± 0.057
Q34D	-0.185 ± 0.21
Q34C	-0.3 ± 0.11

Variant	abundance fitness
Q34H	0.05 ± 0.095
Q34V	-0.417 ± 0.059
Q34G	-0.599 ± 0.061
Q34E	-0.052 ± 0.081
Q34P	-0.817 ± 0.13
Q34W	-0.123 ± 0.073
Q34F	-0.433 ± 0.13
Q34K	-0.143 ± 0.13
Q34M	-0.329 ± 0.097
Q34R	-0.003 ± 0.052
Q34N	-0.004 ± 0.12
Q34Y	-0.332 ± 0.21
Q34L	-0.295 ± 0.064
Q34S	-0.388 ± 0.08
Q34I	-0.81 ± 0.29
Q34T	-0.285 ± 0.11
T29I	-0.825 ± 0.28
T29N	-0.338 ± 0.21
T29A	-0.585 ± 0.36
T29S	-0.208 ± 0.35
T29D	-0.626 ± 0.39
A38Y	-1.08 ± 0.48
A38K	-0.088 ± 0.074
A38P	-0.935 ± 0.17

Variant	abundance fitness
A38D	-0.258 ± 0.094
A38F	-0.312 ± 0.11
A38T	-0.552 ± 0.11
A38C	-0.297 ± 0.087
A38I	-0.413 ± 0.1
A38N	-0.308 ± 0.21
A38W	-0.861 ± 0.16
A38L	-0.176 ± 0.05
A38H	-0.226 ± 0.14
A38V	-0.419 ± 0.06
A38E	-0.15 ± 0.078
A38Q	-0.179 ± 0.078
A38S	-0.056 ± 0.051
A38M	-0.11 ± 0.071
V27R	-0.909 ± 0.096
V27A	-0.21 ± 0.049
V27W	-0.734 ± 0.13
V27Q	-0.613 ± 0.15
V27L	-0.65 ± 0.071
V27F	-0.413 ± 0.1
V27K	-1.09 ± 0.3
V27M	-0.722 ± 0.18
V27I	-0.392 ± 0.12
V27E	-0.731 ± 0.18

Variant	abundance fitness
V27S	-0.583 ± 0.074
V27H	-0.764 ± 0.26
V27D	-0.904 ± 0.14
V27G	-0.419 ± 0.048
V27T	-0.675 ± 0.1
V27C	0.002 ± 0.082
Q32C	-0.68 ± 0.22
Q32T	-0.507 ± 0.12
Q32Y	-0.891 ± 0.14
Q32A	-0.911 ± 0.1
Q32P	-0.941 ± 0.16
Q32W	-0.873 ± 0.14
Q32L	-0.95 ± 0.13
Q32G	-0.725 ± 0.07
Q32R	-0.917 ± 0.11
Q32F	-0.829 ± 0.27
Q32D	-0.842 ± 0.27
Q32S	-0.598 ± 0.091
Q32V	-0.862 ± 0.11
Q32E	-0.276 ± 0.11
Q32N	-0.873 ± 0.22
Q32I	-0.772 ± 0.26
